From patent US20260200999A1, “SYNTHETIC TRANSCRIPTION FACTORS” (ETH ZURICH, priority 2022, published 2026) come the findings set out here.

What all share (type): cell-based, human
Data set [1] has as its system reporter construct with MTERF1 binding sites (SEQ ID NO: 42) upstream a minimal TATA box driving mCerulean. Kind of data set: mCerulean reporter co-transfection with MTF construct in Hela cells (microscopy, flow cytometry). An excerpt: The inventors engineered an exemplary “Human-derived transcriptional activator protein” (HumTAP) transactivation system by engineering a HumTAP transactivator and a promoter comprising the Response Elements/MTERF1 binding sites that is operably linked to a gene of interest. A prototype HumTAP protein was made by fusing a peptide consisting of amino acids 58 through 399 of the human MTERF1 gene (MTERF158-399 (SEQ ID NO: 1), Uniprot Q99551) to a peptide consisting of amino acids 430 through 551 of the RELA protein (RelA430-551 (SEQ ID NO: 3), Uniprot Q04206). This fusion is henceforth referred to as MTERF158-399::RelA430-551 (or “MTF”; SEQ ID NO: 100). A DNA construct was made with a strong EF1A promoter driving a constitutive expression of MTF (SEQ ID NO: 101) in human cells (“MTF construct”).
To construct a promoter with Response Elements/MTERF1 binding sites driving the gene of interest, the inventors placed MTERF1 binding sites (SEQ ID NO: 42) upstream a minimal TATA box (SEQ ID NO: 103). An mCerulean fluorescent reporter representing the gene of interest (Gol) was placed downstream of the TATA box. Each of these is referred to as a reporter construct. […] Using flow cytometry, relative mCerulean levels were measured and calculated by normalization to the transfection control in Hela cells (FIG. 1C). […]

Data set [2] has as its system Response Element-driven mCerulean reporter (MTERF1 binding sites, SEQ ID NO: 42). Briefly: mCerulean reporter co-transfection with HumTAP constructs in HEK293 cells (flow cytometry). An excerpt:
To construct a promoter with Response Elements/MTERF1 binding sites driving the gene of interest, the inventors placed MTERF1 binding sites (SEQ ID NO: 42) upstream a minimal TATA box (SEQ ID NO: 103). An mCerulean fluorescent reporter representing the gene of interest (Gol) was placed downstream of the TATA box. Each of these is referred to as a reporter construct. Five different reporter constructs were made comprising respectively 3, 5, 7, 9, and 11 MTERF1 binding sites 6 base pairs apart upstream of the TATA box (FIG. 1A; SEQ ID NO: 41, 44, 45, 46 and 47, respectively). They were co-transfected with the MTF construct into Hela cells. […] Using flow cytometry, relative mCerulean levels were measured and calculated by normalization to the transfection control in Hela cells (FIG. 1C). […] Next, reporter plasmids with varying spacer lengths (0, 6 bp and 10 bp; SEQ ID NO: 48, 44 and 49, respectively) (FIG. 1F) between a fixed number of REs (i.e. 5 REs/MTERF1 binding sites) were transfected with the MTF construct. […] This was confirmed using flow cytometry (FIG. 1H). […]
With the goal to engineer stronger and possibly shorter HumTAPs, the inventors fused the MTERF158-399 peptide (SEQ ID NO: 1) to a variety of transactivation domains and transfected HEK293 cells with those constructs and the reporter construct comprising 5×RE/MTERF1 binding sites without a spacer between them (SEQ ID NO: 48).
First, MTERF158-399 (SEQ ID NO: 1) was fused with different subsequences of RelA. RelA361-551 (SEQ ID NO: 27) corresponds to the sequence used in the construction of the bacterial-derived synthetic TF PIT2 [19], while RelA342-551 (SEQ ID NO: 29) contains all annotated transactivation domains according to domain annotation under Uniprot Q04206 (https://www.uniprot.org/uniprotkb/Q04206/entry). […] We also fused MTERF158-399 (SEQ ID NO: 1) to a set of transactivation domains previously found to be strong activators with a small genetic footprint (FIG. 4B).
To further decrease the DNA footprint of a HumTAP, the inventors investigated to what degree the DNA binding domain may be reduced. To this end, the inventors created 3 versions of MTERF1 subsequences fused to RelA430-551 (SEQ ID NO: 3). MTERF173-399 (SEQ ID NO: 7), MTERF1104-399 (SEQ ID NO: 9), and MTERF1135-399 (SEQ ID NO: 11) are subunits of MTERF1 without its mitochondrial transfer peptide (MTERF11-57; SEQ ID NO: 37) that either lack only the first […] N-terminal amino acids (MTERF58-72; SEQ ID NO: 39) or additionally, also lack the first (MTERF173-98; SEQ ID NO: 104) or both the first and second (MTERF1104-134; SEQ ID NO: 106) mterf motifs (FIG. 5A). The removal of N-terminal domains reduces the genetic footprint of a HumTAP (FIG. 5B). These constructs were co-transfected into HEK293 cells with the reporter construct containing 5×RE without a spacer in its promoter (SEQ ID NO: 48).
In addition to RelA430-551 (termed “v1”), the inventors tested three alternative subsequences: v2) RelA342-551 (SEQ ID NO: 29), which contains all transactivation domains as annotated on UniProt Q04206; v3) RelA361-551 (SEQ ID NO: 27), which is identical to the peptide used in the construction of PIT2 [2]; and v4) RelA521-551 (SEQ ID NO: 31), which constitutes only the transactivation domain 1 (TA1). The protein domains WW (SEQ ID NO: 21), KRAB of ZNF473 (SEQ ID NO: 23), Nuc-rec-co-Act (SEQ ID NO: 25), LMSTEN (SEQ ID NO: 19), and FoxoTAD (SEQ ID NO: 17) were recently identified as strong transactivators. To assess their functionality in the HumTAP context, the inventors created fusion proteins between each of them and MTERF158-399 (SEQ ID NO: 1) (FIG. 9A).
Upon co-transfection of HEK293 cells with plasmids encoding pEF1a-driven expression of the fusion HumTAPs, a Response Element-driven mCerulean reporter protein, and a mCherry transfection control, all peptides derived from RelA except TA1 mediated high levels of reporter gene expression. […]

In data set [3] the test system is Response Element-driven mCerulean reporter. Kind of data set: Dose dependency of mCerulean reporter expression on transfected MTF construct amount, HEK293. Conditions: HEK293, 24-well plates, 100 ng reporter construct, Hill equation, Hill coefficient 1. The method, then:
By transfecting different amounts of the codon optimized MTF construct into HEK293 cells the inventors established a dose dependency of mCerulean reporter (Gol) expression on the expression levels of MTF (FIG. 3). HEK293 cells in 24-well plates were transfected with 0.75, 3, 6, 12, 24, 48, 96, 192, and 384 ng of MTF construct, 100 ng of reporter construct, and 50 ng of constitutive mCherry transfection control construct. Two days after transfection, the cells were analyzed using flow cytometry. The dose-response curve was modeled as a Hill equation assuming a Hill coefficient of 1.

B1: codon optimized MTF construct: DNA construct encoding MTF with codons changed to the most common ones in humans (nucleic acid)
DNA: ATGTTCGGCGTGAAGTGCCACAACACCGACAGCGAGCCCCTGAAGAACGAGGACCTGCTGAAGAACCTGCTGACCATGGGCGTGGACATCGACATGGCCCGCAAGCGCCAGCCCGGCGTGTTCCACCGCATGATCACCAACGAGCAGGACCTGAAGATGTTCCTGCTGAGCAAGGGCGCCAGCAAGGAGGTGATCGCCAGCATCATCAGCCGCTACCCCCGCGCCATCACCCGCACCCCCGAGAACCTGAGCAAGCGCTGGGACCTGTGGCGCAAGATCGTGACCAGCGACCTGGAGATCGTGAACATCCTGGAGCGCAGCCCCGAGAGCTTCTTCCGCAGCAACAACAACCTGAACCTGGAGAACAACATCAAGTTCCTGTATAGCGTGGGCCTGACCCGCAAGTGCCTGTGCCGCCTGCTGACCAACGCCCCCCGCACCTTCAGCAACAGCCTGGACCTGAACAAGCAGATGGTGGAGTTCCTGCAGGCCGCCGGCCTGAGCCTGGGCCACAACGACCCCGCCGACTTCGTGCGCAAGATCATCTTCAAGAACCCCTTCATCCTGATCCAGAGCACCAAGCGCGTGAAGGCCAACATCGAGTTCCTGCGCAGCACCTTCAACCTGAACAGCGAGGAGCTGCTGGTGCTGATCTGCGGCCCCGGCGCCGAGATCCTGGACCTGAGCAACGACTACGCCCGCCGCAGCTACGCCAACATCAAGGAGAAGCTGTTCAGCCTGGGCTGCACCGAGGAGGAGGTGCAGAAGTTCGTGCTGAGCTACCCCGACGTGATCTTCCTGGCCGAGAAGAAGTTCAACGACAAGATCGACTGCCTGATGGAGGAGAACATCAGCATCAGCCAGATCATCGAGAACCCCCGCGTGCTGGACAGCAGCATCAGCACCCTGAAGAGCCGCATCAAGGAGCTGGTGAACGCCGGCTGCAACCTGAGCACCCTGAACATCACCCTGCTGAGCTGGAGCAAGAAGCGCTACGAGGCCAAGCTGAAGAAGCTGAGCCGCTTCGCCCAGGCCGGCGAGGGCACCCTGAGCGAGGCCCTGCTGCAGCTGCAGTTCGACGACGAGGACCTGGGCGCCCTGCTGGGCAACAGCACCGACCCCGCCGTGTTCACCGACCTGGCCAGCGTGGACAACAGCGAGTTCCAGCAGCTGCTGAACCAGGGCATCCCCGTGGCCCCCCACACCACCGAGCCCATGCTGATGGAGTACCCCGAGGCCATCACCCGCCTGGTGACCGGAGCACAAAGACCCCCTGATCCTGCGCCAGCACCTCTTGGAGCACCTGGCCTGCCCAACGGCCTGCTGAGCGGCGACGAGGACTTCAGCAGCATCGCCGACATGGACTTCAGCGCCCTGCTGAGCCAGATCAGCAGC
B1: in data set [1] (Hela cells, 5xRE 6 bp spacer reporter (SEQ ID NO: 44), versus naturally used codons), the “increase of reporter gene expression by codon optimization” value is “ca. 3 fold”. The “effect of codon optimization on reporter fluorescence levels” value in data set [2] (HEK cells) is reported as “no significant effect”. In data set [3] (two days after transfection), the “EC10 of transfected MTF construct” value is on record as 1.25 ng and the “EC50 of transfected MTF construct” value came out at 11.24 ng. In data set [3] (slight drop at higher amounts), the “theoretical EC90 of transfected MTF construct” value is recorded as 101 ng.

B2: SEQ ID NO: 51: negative control promoter comprising 5 scrambled DNA binding sites spaced by 10 bp (nucleic acid)
DNA: ATTCTACCGTCTCGGGCCATTAAAGGCATATGATTCTACCGTCTCGGGCCATTAAAGGCATATGATTCTACCGTCTCGGGCCATTAAAGGCATATGATTCTACCGTCTCGGGCCATTAAAGGCATATGATTCTACCGTCTCGGGCCATTA
Consider B2, for which the “mCerulean reporter (Gol) expression” value is “did not lead to mCerulean expression” in data set [1] (Hela cells co-transfected with MTF construct, microscopy and flow cytometry); “showed the same behavior” in data set [2] (HEK293 cells co-transfected with MTF construct, microscopy and flow cytometry).
